Results from article PMC8951703, “A multifunctional enolase mediates cytoadhesion and interaction with host plasminogen and fibronectin in Mycoplasma hyorhinis” (Veterinary Research, 2022).

Molecular target: T1, Recombinant M. hyorhinis enolase, wild-type (Mycoplasma hyorhinis (strain HUB-1), UniProt P0DXB0 1-450)
T1 construct: enolase of Mycoplasma hyorhinis strain HUB-1, full-length gene MHR_0469 of GenBank CP002170.1, codon-optimized and synthesized; the C-terminal residues are K451 and K452; also called rEno; rEno WT
Experiment: SPR; plasminogen or fibronectin immobilised on CM5 chips by amine coupling (600 RU); recombinant enolase proteins 0-4000 nM injected at 30 uL/min for 180 s, 20 °C, dissociation 1000 s; 10 mM HEPES, 150 mM NaCl, 3 mM EDTA, 0.05% surfactant P20; Biacore X100
Settings: both partners purified

B1: plasminogen (natural protein)
chain: EPLDDYVNTQGASLFSVTKKQLGAGSIEECAAKCEEDEEFTCRAFQYHSKEQQCVIMAENRKSSIIIRMRDVVLFEKKVYLSECKTGNGKNYRGTMSKTKNGITCQKWSSTSPHRPRFSPATHPSEGLEENYCRNPDNDPQGPWCYTTDPEKRYDYCDILECEEECMHCSGENYDGKISKTMSGLECQAWDSQSPHAHGYIPSKFPNKNLKKNYCRNPDRELRPWCFTTDPNKRWELCDIPRCTTPPPSSGPTYQCLKGTGENYRGNVAVTVSGHTCQHWSAQTPHTHNRTPENFPCKNLDENYCRNPDGKRAPWCHTTNSQVRWEYCKIPSCDSSPVSTEQLAPTAPPELTPVVQDCYHGDGQSYRGTSSTTTTGKKCQSWSSMTPHRHQKTPENYPNAGLTMNYCRNPDADKGPWCFTTDPSVRWEYCNLKKCSGTEASVVAPPPVVLLPDVETPSEEDCMFGNGKGYRGKRATTVTGTPCQDWAAQEPHRHSIFTPETNPRAGLEKNYCRNPDGDVGGPWCYTTNPRKLYDYCDVPQCAAPSFDCGKPQVEPKKCPGRVVGGCVAHPHSWPWQVSLRTRFGMHFCGGTLISPEWVLTAAHCLEKSPRPSSYKVILGAHQEVNLEPHVQEIEVSRLFLEPTRKDIALLKLSSPAVITDKVIPACLPSPNYVVADRTECFITGWGETQGTFGAGLLKEAQLPVIENKVCNRYEFLNGRVQSTELCAGHLAGGTDSCQGDSGGPLVCFEKDKYILQGVTSWGLGCARPNKPGVYVRVSRFVTWIEGVMRNN
Work on B1 yielded a Kd of 1.4 ± 0.07 nM.
